# Molecular target: human thrombin (human) (UniProt P00734)
# Assay: cell-based or functional assay
substance,measurement,value
recombinant DES.N135A ATIII (from UniProt P01008 33-464),"thrombin inhibition (residual thrombin activity by chromogenic assay); 1 µM dose, wall shear rate 2,000 sec^-1",> 85%
